This assay addresses TRAIL receptors (TRAILR) on tumor cells. Description: flow cytometry, Colo205 cells. A general note: A flow cytometer gives signals particle by particle.

Consider one substance from US20180094059A1.

scTRAIL3-…, sequence (P50591 other isoform, or with tags, fused parts or gaps): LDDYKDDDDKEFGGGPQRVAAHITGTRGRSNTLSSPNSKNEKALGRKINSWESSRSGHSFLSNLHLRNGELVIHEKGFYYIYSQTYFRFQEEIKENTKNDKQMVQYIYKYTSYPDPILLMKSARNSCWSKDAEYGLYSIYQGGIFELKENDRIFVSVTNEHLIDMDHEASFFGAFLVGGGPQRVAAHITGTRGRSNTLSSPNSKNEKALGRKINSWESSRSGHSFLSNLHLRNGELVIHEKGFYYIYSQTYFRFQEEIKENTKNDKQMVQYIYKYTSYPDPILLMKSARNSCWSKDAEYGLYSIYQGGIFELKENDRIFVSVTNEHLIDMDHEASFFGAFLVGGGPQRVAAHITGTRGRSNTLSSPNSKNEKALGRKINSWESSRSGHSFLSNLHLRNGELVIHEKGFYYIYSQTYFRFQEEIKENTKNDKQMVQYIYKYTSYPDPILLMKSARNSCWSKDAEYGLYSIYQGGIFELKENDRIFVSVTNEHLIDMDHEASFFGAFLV

What is called EC50 is the concentration at which the effect is half-maximal. For “scTRAIL3-… (from UniProt P50591 118-281) (ligand)”, the EC50 was determined as 5.67 nM.
